Data from doi:10.1101/2022.09.03.506457 (bioRxiv, 2022).
Each block holds one binder with its values, some of them ahead of it.

B2: Methanocaldococcus jannaschii fumarate hydratase α-subunit (enzyme)
chain: KISDVVVELFREAAIYLPEDVKNALEEAYKKESSEISKNTLKAIIENNKIAEETQVPLCQDTGVPIVFLKIGKNINSSEIMKIIEEIKEGVKKATEEVPLRPNVVHPLTRENFKTNVGLNSPFINIEFDESLDREIEIIAFPKGAGSENMSALKMLKPSDGIEGIKNFVLETIANAGGKPCPPIVVGIGIGGTADVALKLAKKALLRKIGERHRDKEIANLEKELLEKINSLGIGAMGLGGDITALDVFIEIAGCHTASLPVGICIQCWADRRAIKRIKLDAKL

Experiments:
[1] = target: B2; experiment: ITC
SEC = target: the molecule itself; experiment: SEC
crystal structure = target: the molecule itself; experiment: crystal structure

Kd [1]: 0.595 ± 0.019 µM
B1: Methanocaldococcus jannaschii fumarate hydratase β-subunit (enzyme)
chain: MEYTFNKLTKKDVKKLKVGDIVYLNGKIYTARDEAHLKIIEMLKSNEKLPFDLNESIIYHAGPIMKKVNDSWVCVSIGPTTSARMNDVEEEFIKLTNISAIVGKGGMKKELLKTFEDYGVVYLAAPGGCAALLANSVKRVDNVYFLDELGMPEAVWELEVNNFGPLIVAMDSHGNSIYEEVNKKVYEKLNELIGL

Binder: B2
stoichiometry N (SEC): 2

B3: Selenomethionine incorporated Methanocaldococcus jannaschii fumarate hydratase α-subunit (of Se-MjFHαβ) (enzyme)
chain: KISDVVVELFREAAIYLPEDVKNALEEAYKKESSEISKNTLKAIIENNKIAEETQVPLCQDTGVPIVFLKIGKNINSSEIMKIIEEIKEGVKKATEEVPLRPNVVHPLTRENFKTNVGLNSPFINIEFDESLDREIEIIAFPKGAGSENMSALKMLKPSDGIEGIKNFVLETIANAGGKPCPPIVVGIGIGGTADVALKLAKKALLRKIGERHRDKEIANLEKELLEKINSLGIGAMGLGGDITALDVFIEIAGCHTASLPVGICIQCWADRRAIKRIKLDAKL
modifications: selenomethionine incorporated (eleven selenium atoms per functional dimer)
binding result (crystal structure): binds
